These results are taken from the nanobody polyreactivity screen of Harvey et al. (2022).

This data set can be described thus: yeast display, Sf9 membrane polyspecificity reagent, FACS + sequencing; frameworks hold sequencing errors. Summed up:
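Polyreactivity labels are assigned by the sorting gate from which each nanobody was recovered. The gates were low and high (top ~1%), set on anti-HA fluorescence for expression and streptavidin fluorescence for reagent binding. Before sorting, galactose-induced (36–48 hours) yeast display cells were stained for 1 hour at 4 °C with 10% biotinylated, detergent-solubilized Sf9 membrane reagent.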
Consider “QVQLVESVGGLVQAGGSLRLSCAASGSIFGVYVMGWYRQAPGKERELVAAITRGASTNYADSVKGRFTISRDNAKNTVYLQMKSLKPEDTAVYYCAAEWWEEYGYYDDNDYWGQGTQVTVSS”, for which the “polyreactivity (PSR sort gate)” value is “low polyreactivity”.
For the sequence “QVQLVESVGGLVQAGGSLRLSCAASGSIFITYAMGWYRQAPGKVRELVAAIRDSGDRTYYADSVKGRFTISRDNAKNTVYLQMNSLKPEDTAVYYCNARWQEPLKYDYWGQGTQVTVSS”, the “polyreactivity (PSR sort gate)” value is listed as “low polyreactivity”.
For “QVQLVESVGGLVQAGGSLRLSCAASGSIFTHNTMGWYRQAPGKERELVASIDSGASTNYADSVKGRFTISRDNAKNTVYLQMNSLKPEDTAVYYCAARDYDWGYPYYYWGQGTQVTVSS”, the “polyreactivity (PSR sort gate)” value is given as “low polyreactivity”.
As for “QVQLVESVGGLVQAGGSLRLSCAASGSIFVNNAMGWYRQAPGKERELVAAISRSGGSTYYADSVKGRFTISRDNAKNTVYLQMNSLKPEDTAVYYCATVHRSSTPPEFNYWGQGTQVTVSS”, the “polyreactivity (PSR sort gate)” value is on record as “high polyreactivity”.
For “QVQLVESVGGLVQAGGSLRLSCAASGSIFVTNALGWYRQAPGKERELVAAISSGGNTNYADSVKGRFTISRDNAKNTVYLQMNSLKPEDTAVYDCAKDPDKVDYVDMDYWGQGTQVTVSS”, the “polyreactivity (PSR sort gate)” value was “low polyreactivity”.
Consider “QVQLVESVGGLVQAGGSLRLSCAASGSIFYDNGMGWYRQAPGNERELVAAISRGGTTNYADSVKGRFTISRDKAKNTVYLQMNSLKPEDTAVYYCNAETRFTYWGSWYDYWGQGTQVTVSS”, for which the “polyreactivity (PSR sort gate)” value is listed as “low polyreactivity”.
With “QVQLVESVGGLVQAGGSLRLSCAASGSIFYPYAMGWYRQAPGKERELVAAIRNGRSTYYADSVKGRFTISRDNAKNTVYLKMNSLKPEDTAVYYCAASVRRRHPFEYWGQGTQVTVSS”, the “polyreactivity (PSR sort gate)” value was “high polyreactivity”.
Then “QVQLVESVGGLVQAGGSLRLSCAASGSILAVNAMGWYRQAPGKERELVAAISSRGGSTSYADSVKGRYTISRDNAKNTVYLQMNSLKPEDTAVYYCAVRAVRRLRTSVPVRFYYWGQGTQVTVSS”, with “high polyreactivity”; and “QVQLVESVGGLVQAGGSLRLSCAASGSILVSYAMGWSRQAPGKERELGPAITQGGGSTYYADCVKGRFTFSRDNAKNTVYLQMNSLKPEDTAVYYCSVDGLSDDRYSAGGDYWGQGTQVTVSS”, with “low polyreactivity”; and “QVQLVESVGGLVQAGGSLRLSCAASGSNFPPYAMGWYRQAPGKERELVAAITSTDSTDYADSVKGRFTISRDNAKNTVYLQMNSLKPEDTAVYYCAAATGTYGRGGYYWGQGTQVTVSS”, with “high polyreactivity”.
For the sequence “QVQLVESVGGLVQAGGSLRLSCAASGSTFDKYAMGWYRQAPGKERELVATISQSGASTYYADSVKGRFTISRDNAKNTVYLQMNSLKPEDTAVYYCAARSSTRVWYWGRYYYWGQGTQVTVSS”, the “polyreactivity (PSR sort gate)” value is “high polyreactivity”.
Take “QVQLVESVGGLVQAGGSLRLSCAASGSTFGRNAMGWYRQAPGKERELVAAISSRGGGTYYADSVKGRFTISRDNAKNTVYLQMNSLKPEDTAVYYCAATYGYRRRNHYNYWGQGTQVTVSS”: the “polyreactivity (PSR sort gate)” value is “high polyreactivity”.
For the sequence “QVQLVESVGGLVQAGGSLRLSCAASGSTFQSNGMGWYRQAPGKERELVAAITSTDASTSYADSVKGRFTISRDNAKITVYLQMNSLKPEDTAVYYCAADFPVASGAELDYWGQGTQVTVSS”, the “polyreactivity (PSR sort gate)” value was “low polyreactivity”.
Next, “QVQLVESVGGLVQAGGSLRLSCAASGSTFYANAMGWYRQAPGKERELVAAITWGDASTYYADSVKGRFTISRDNAKNTVYLQMNSLKPEDTAVYYCAVDESYGSSSDMDYWGQGTQVTVSS”: “low polyreactivity”; “QVQLVESVGGLVQAGGSLRLSCAASGSTSRIYAIGRYRKAPGKEREWVAAISRSGGSTYYADSVKGRFTISRDNAKNTVYLQMNSLKPEDTAVYYCAKDASKETSGGDYWGQGTQVTVSS”: “high polyreactivity”.
As for “QVQLVESVGGLVQAGGSLRLSCAASGYIFYGYAMGWYRQAPGKEREFVAAITVRGGSTYYADSVKGRFTISRDNAKNTVYLQMNSEKPEDTAVYYCAAAPQFTFGVGYWGQGTQVTVSS”, the “polyreactivity (PSR sort gate)” value is reported as “low polyreactivity”.
